From article PMC3958441, “Isl1 and Pou4f2 Form a Complex to Regulate Target Genes in Developing Retinal Ganglion Cells” (PLoS ONE, 2014)

T1: Pou4f2D2 (mouse, UniProt Q63934 1-330)
T1 sequence: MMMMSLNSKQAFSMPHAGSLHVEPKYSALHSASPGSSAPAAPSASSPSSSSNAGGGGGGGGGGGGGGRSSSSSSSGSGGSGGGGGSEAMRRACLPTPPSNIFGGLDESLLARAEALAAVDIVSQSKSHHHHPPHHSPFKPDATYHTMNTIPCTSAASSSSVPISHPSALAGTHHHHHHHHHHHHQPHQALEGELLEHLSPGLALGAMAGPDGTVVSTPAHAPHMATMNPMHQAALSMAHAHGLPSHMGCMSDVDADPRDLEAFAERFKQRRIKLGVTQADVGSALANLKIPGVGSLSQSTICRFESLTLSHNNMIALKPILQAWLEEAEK

T2: Pou4f2D1 (mouse, UniProt Q63934 1-260)
T2 sequence: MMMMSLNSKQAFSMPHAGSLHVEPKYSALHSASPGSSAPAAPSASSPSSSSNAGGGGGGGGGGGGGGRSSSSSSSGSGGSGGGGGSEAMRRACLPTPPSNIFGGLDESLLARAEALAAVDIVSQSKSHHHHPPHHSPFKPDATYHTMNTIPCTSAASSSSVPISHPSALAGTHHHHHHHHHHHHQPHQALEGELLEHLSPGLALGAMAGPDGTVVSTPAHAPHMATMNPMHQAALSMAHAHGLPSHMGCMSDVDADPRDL

T3: Isl1 (mouse, UniProt P61372 1-349)
T3 sequence: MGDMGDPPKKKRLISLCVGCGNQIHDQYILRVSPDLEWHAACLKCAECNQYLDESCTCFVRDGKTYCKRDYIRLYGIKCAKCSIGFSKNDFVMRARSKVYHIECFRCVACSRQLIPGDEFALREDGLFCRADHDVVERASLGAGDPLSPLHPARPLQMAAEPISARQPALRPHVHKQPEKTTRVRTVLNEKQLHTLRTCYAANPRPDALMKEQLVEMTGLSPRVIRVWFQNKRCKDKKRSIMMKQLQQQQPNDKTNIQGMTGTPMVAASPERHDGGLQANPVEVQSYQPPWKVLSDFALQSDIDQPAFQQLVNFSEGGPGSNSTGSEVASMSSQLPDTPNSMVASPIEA

T4: Pou4f2D3 (mouse, UniProt Q63934 240-411)
T4 sequence: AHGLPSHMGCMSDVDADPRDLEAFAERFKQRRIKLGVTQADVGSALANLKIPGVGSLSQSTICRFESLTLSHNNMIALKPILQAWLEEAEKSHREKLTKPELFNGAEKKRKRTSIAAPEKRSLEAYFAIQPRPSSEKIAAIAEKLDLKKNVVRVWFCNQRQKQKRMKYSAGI

T5: Pou4f2 (Brn3b) (mouse, UniProt Q63934 1-411)
T5 sequence: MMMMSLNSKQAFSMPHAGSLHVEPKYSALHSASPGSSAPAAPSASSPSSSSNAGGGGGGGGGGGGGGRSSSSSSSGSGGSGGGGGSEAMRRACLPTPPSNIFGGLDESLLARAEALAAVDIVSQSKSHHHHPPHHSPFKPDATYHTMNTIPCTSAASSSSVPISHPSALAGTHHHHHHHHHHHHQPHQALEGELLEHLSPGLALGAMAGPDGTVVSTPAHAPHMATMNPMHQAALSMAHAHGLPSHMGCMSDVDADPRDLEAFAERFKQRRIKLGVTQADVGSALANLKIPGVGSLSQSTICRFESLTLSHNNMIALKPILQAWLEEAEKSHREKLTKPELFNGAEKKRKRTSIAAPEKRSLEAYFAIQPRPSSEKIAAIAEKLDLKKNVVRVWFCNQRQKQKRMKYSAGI

T6: Pou4f2D5 (mouse, UniProt Q63934 125-411)
T6 sequence: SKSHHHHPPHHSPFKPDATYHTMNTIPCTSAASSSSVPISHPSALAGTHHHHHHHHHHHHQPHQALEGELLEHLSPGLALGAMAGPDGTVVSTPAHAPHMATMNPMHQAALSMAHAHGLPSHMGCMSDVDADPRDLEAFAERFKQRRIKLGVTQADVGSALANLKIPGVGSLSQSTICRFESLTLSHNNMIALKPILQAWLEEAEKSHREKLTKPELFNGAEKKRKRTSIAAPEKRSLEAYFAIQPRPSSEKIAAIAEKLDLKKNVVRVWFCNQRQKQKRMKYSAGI


What was measured:
Assay in all cases: EMSA; EMSA: 20 mM Tris-HCl pH 7.5, 50 mM NaCl, 10 mM DTT, 1 mM EDTA, 5% glycerol, 200 ng dI/dC, 200 ng each protein in 20 ul, 4 C, 30 min; 8% PAGE, 1x TBE, 4 C
Pou4f2D2 = target: T1, Pou4f2D2; settings: protein: recombinant; tags: His (C-terminal); (radiolabel, Klenow fill-in); 5' overhang 1 nt at both ends before fill-in
Pou4f2D1 = target: T2, Pou4f2D1; settings: protein: recombinant; tags: His (C-terminal); (radiolabel, Klenow fill-in); 5' overhang 1 nt at both ends before fill-in
Isl1 = target: T3, Isl1; settings: protein: recombinant; tags: His (C-terminal, pET-28a); (radiolabel, Klenow fill-in); 5' overhang 1 nt at both ends before fill-in
Pou4f2D3 = target: T4, Pou4f2D3; settings: protein: recombinant; tags: His (C-terminal); (radiolabel, Klenow fill-in); 5' overhang 1 nt at both ends before fill-in
Pou4f2 (Brn3b) = target: T5, Pou4f2 (Brn3b); settings: protein: recombinant; tags: His (C-terminal, pET-28a); (radiolabel, Klenow fill-in); 5' overhang 1 nt at both ends before fill-in
Pou4f2D5 = target: T6, Pou4f2D5; settings: protein: recombinant; tags: His (C-terminal); (radiolabel, Klenow fill-in); 5' overhang 1 nt at both ends before fill-in

Binder | binding result (Pou4f2D2) | binding result (Pou4f2D1) | binding result (Isl1) | binding result (Pou4f2D3) | binding result (Pou4f2 (Brn3b)) | binding result (Pou4f2D5)
CBRN3(W) (dsDNA) DNA 1: GATCTCTCCTGCATAATTAATTACCCCCGGAT DNA 2: GATCCGGGGGTAATTAATTATGCAGGAGAGAT | no binding | no binding | binds | binds | binds | binds
SBRN3(W) (dsDNA) DNA 1: GCACACGACCCAATGAATTAATAACCGGGCTG DNA 2: GCAGCCCGGTTATTAATTCATTGGGTCGTGTG | no binding | no binding | binds | binds | binds | binds
